Source: IntAct's records for PubMed 17928861

B1: DOA4-independent degradation protein 4 (Saccharomyces cerevisiae), P36108 (parent)
chain: MSLFEWVFGKNVTPQERLKKNQRALERTQRELEREKRKLELQDKKLVSEIKKSAKNGQVAAAKVQAKDLVRTRNYIQKFDNMKAQLQAISLRIQAVRSSDQMTRSMSEATGLLAGMNRTMNLPQLQRISMEFEKQSDLMGQRQEFMDEAIDNVMGDEVDEDEEADEIVNKVLDEIGVDLNSQLQSTPQNLVSNAPIAETAMGIPEPIGAGSEFHGNPDDDLQARLNTLKKQT
partner: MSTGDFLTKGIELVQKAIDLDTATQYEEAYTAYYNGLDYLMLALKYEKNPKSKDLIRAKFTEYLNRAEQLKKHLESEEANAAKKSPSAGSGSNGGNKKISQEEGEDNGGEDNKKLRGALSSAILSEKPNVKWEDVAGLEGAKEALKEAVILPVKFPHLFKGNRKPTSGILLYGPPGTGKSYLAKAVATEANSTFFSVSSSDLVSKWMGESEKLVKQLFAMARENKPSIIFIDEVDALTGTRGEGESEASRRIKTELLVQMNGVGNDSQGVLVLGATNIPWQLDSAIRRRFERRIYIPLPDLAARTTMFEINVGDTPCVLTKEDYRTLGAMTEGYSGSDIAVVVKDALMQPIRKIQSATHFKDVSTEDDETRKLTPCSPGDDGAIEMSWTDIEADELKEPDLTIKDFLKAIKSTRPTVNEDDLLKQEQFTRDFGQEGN

Variants of: B1
Conditions: with vps4_yeast VPS4, P52917

Effect of a mutation on the interaction, disrupting interaction strength:
MSLFEWVFGKNVTPQERLKKNQRALERTQRELEREKRKLELQDKKLVSEIKKSAKNGQVAAAKVQAKDLVRTRNYIQKFDNMKAQLQAISLRIQAVRSSDQMTRSMSEATGLLAGMNRTMNLPQLQRISMEFEKQSDLMGQRQEFMDEAIDNVMGDEVDEDEEADEIVNKVLDEIGVDLNSQLQSTPQNLVSNAPIAETAMGIPEPIGAGSEFHGNPDDDLQARLNTLDKQT [K229D]
MSLFEWVFGKNVTPQERLKKNQRALERTQRELEREKRKLELQDKKLVSEIKKSAKNGQVAAAKVQAKDLVRTRNYIQKFDNMKAQLQAISLRIQAVRSSDQMTRSMSEATGLLAGMNRTMNLPQLQRISMEFEKQSDLMGQRQEFMDEAIDNVMGDEVDEDEEADEIVNKVLDEIGVDLNSQLQSTPQNLVSNAPIAETAMGIPEPIGAGSEFHGNPDDDLQARDNTLKKQT [L225D]
MSLFEWVFGKNVTPQERLKKNQRALERTQRELEREKRKLELQDKKLVSEIKKSAKNGQVAAAKVQAKDLVRTRNYIQKFDNMKAQLQAISLRIQAVRSSDQMTRSMSEATGLLAGMNRTMNLPQLQRISMEFEKQSDLMGQRQEFMDEAIDNVMGDEVDEDEEADEIVNKVLDEIGVDLNSQLQSTPQNLVSNAPIAETAMGIPEPIGAGSEFHGNPDDDLQARLNTDKKQT [L228D]
MSLFEWVFGKNVTPQERLKKNQRALERTQRELEREKRKLELQDKKLVSEIKKSAKNGQVAAAKVQAKDLVRTRNYIQKFDNMKAQLQAISLRIQAVRSSDQMTRSMSEATGLLAGMNRTMNLPQLQRISMEFEKQSDLMGQRQEFMDEAIDNVMGDEVDEDEEADEIVNKVLDEIGVDLNSQLQSTPQNLVSNAPIAETAMGIPEPIGAGSEFHGNPDDDLQADLNTLKKQT [R224D]
MSLFEWVFGKNVTPQERLKKNQRALERTQRELEREKRKLELQDKKLVSEIKKSAKNGQVAAAKVQAKDLVRTRNYIQKFDNMKAQLQAISLRIQAVRSSDQMTRSMSEATGLLAGMNRTMNLPQLQRISMEFEKQSDLMGQRQEFMDEAIDNVMGDEVDEDEEADEIVNKVLDEIGVDLNSQLQSTPQNLVSNAPIAETAMGIPEPIGAGSEFHGNPDDDDQARLNTLKKQT [L221D]
